Data taken from IntAct's records for PubMed 20168298.

B1: Polycystin-2 (Homo sapiens), Q13563 (parent)
chain: MVNSSRVQPQQPGDAKRPPAPRAPDPGRLMAGCAAVGASLAAPGGLCEQRGLEIEMQRIRQAAARDPPAGAAASPSPPLSSCSRQAWSRDNPGFEAEEEEEEVEGEEGGMVVEMDVEWRPGSRRSAASSAVSSVGARSRGLGGYHGAGHPSGRRRRREDQGPPCPSPVGGGDPLHRHLPLEGQPPRVAWAERLVRGLRGLWGTRLMEESSTNREKYLKSVLRELVTYLLFLIVLCILTYGMMSSNVYYYTRMMSQLFLDTPVSKTEKTNFKTLSSMEDFWKFTEGSLLDGLYWKMQPSNQTEADNRSFIFYENLLLGVPRIRQLRVRNGSCSIPQDLRDEIKECYDVYSVSSEDRAPFGPRNGTAWIYTSEKDLNGSSHWGIIATYSGAGYYLDLSRTREETAAQVASLKKNVWLDRGTRATFIDFSVYNANINLFCVVRLLVEFPATGGVIPSWQFQPLKLIRYVTTFDFFLAACEIIFCFFIFYYVVEEILEIRIHKLHYFRSFWNCLDVVIVVLSVVAIGINIYRTSNVEVLLQFLEDQNTFPNFEHLAYWQIQFNNIAAVTVFFVWIKLFKFINFNRTMSQLSTTMSRCAKDLFGFAIMFFIIFLAYAQLAYLVFGTQVDDFSTFQECIFTQFRIILGDINFAEIEEANRVLGPIYFTTFVFFMFFILLNMFLAIINDTYSEVKSDLAQQKAEMELSDLIRKGYHKALVKLKLKKNTVDDISESLRQGGGKLNFDELRQDLKGKGHTDAEIEAIFTKYDQDGDQELTEHEHQQMRDDLEKEREDLDLDHSSLPRPMSSRSFPRSLDDSEEDDDEDSGHSSRRRGSISSGVSYEEFQVLVRRVDRMEHSIGSIVSKIDAVIVKLEIMERAKLKRREVLGRLLDGVAEDERLGRDSEIHREQMERLVREELERWESDDAASQISHGLGTPVGLNGQPRPRSSRPSSSQSTEGMEGAGGNGSSNVHV

Variants of: B1
Conditions: with pkd1_human PKD1, P98161
pkd1_human PKD1, P98161, sequence (P98161 whole entry, looked up): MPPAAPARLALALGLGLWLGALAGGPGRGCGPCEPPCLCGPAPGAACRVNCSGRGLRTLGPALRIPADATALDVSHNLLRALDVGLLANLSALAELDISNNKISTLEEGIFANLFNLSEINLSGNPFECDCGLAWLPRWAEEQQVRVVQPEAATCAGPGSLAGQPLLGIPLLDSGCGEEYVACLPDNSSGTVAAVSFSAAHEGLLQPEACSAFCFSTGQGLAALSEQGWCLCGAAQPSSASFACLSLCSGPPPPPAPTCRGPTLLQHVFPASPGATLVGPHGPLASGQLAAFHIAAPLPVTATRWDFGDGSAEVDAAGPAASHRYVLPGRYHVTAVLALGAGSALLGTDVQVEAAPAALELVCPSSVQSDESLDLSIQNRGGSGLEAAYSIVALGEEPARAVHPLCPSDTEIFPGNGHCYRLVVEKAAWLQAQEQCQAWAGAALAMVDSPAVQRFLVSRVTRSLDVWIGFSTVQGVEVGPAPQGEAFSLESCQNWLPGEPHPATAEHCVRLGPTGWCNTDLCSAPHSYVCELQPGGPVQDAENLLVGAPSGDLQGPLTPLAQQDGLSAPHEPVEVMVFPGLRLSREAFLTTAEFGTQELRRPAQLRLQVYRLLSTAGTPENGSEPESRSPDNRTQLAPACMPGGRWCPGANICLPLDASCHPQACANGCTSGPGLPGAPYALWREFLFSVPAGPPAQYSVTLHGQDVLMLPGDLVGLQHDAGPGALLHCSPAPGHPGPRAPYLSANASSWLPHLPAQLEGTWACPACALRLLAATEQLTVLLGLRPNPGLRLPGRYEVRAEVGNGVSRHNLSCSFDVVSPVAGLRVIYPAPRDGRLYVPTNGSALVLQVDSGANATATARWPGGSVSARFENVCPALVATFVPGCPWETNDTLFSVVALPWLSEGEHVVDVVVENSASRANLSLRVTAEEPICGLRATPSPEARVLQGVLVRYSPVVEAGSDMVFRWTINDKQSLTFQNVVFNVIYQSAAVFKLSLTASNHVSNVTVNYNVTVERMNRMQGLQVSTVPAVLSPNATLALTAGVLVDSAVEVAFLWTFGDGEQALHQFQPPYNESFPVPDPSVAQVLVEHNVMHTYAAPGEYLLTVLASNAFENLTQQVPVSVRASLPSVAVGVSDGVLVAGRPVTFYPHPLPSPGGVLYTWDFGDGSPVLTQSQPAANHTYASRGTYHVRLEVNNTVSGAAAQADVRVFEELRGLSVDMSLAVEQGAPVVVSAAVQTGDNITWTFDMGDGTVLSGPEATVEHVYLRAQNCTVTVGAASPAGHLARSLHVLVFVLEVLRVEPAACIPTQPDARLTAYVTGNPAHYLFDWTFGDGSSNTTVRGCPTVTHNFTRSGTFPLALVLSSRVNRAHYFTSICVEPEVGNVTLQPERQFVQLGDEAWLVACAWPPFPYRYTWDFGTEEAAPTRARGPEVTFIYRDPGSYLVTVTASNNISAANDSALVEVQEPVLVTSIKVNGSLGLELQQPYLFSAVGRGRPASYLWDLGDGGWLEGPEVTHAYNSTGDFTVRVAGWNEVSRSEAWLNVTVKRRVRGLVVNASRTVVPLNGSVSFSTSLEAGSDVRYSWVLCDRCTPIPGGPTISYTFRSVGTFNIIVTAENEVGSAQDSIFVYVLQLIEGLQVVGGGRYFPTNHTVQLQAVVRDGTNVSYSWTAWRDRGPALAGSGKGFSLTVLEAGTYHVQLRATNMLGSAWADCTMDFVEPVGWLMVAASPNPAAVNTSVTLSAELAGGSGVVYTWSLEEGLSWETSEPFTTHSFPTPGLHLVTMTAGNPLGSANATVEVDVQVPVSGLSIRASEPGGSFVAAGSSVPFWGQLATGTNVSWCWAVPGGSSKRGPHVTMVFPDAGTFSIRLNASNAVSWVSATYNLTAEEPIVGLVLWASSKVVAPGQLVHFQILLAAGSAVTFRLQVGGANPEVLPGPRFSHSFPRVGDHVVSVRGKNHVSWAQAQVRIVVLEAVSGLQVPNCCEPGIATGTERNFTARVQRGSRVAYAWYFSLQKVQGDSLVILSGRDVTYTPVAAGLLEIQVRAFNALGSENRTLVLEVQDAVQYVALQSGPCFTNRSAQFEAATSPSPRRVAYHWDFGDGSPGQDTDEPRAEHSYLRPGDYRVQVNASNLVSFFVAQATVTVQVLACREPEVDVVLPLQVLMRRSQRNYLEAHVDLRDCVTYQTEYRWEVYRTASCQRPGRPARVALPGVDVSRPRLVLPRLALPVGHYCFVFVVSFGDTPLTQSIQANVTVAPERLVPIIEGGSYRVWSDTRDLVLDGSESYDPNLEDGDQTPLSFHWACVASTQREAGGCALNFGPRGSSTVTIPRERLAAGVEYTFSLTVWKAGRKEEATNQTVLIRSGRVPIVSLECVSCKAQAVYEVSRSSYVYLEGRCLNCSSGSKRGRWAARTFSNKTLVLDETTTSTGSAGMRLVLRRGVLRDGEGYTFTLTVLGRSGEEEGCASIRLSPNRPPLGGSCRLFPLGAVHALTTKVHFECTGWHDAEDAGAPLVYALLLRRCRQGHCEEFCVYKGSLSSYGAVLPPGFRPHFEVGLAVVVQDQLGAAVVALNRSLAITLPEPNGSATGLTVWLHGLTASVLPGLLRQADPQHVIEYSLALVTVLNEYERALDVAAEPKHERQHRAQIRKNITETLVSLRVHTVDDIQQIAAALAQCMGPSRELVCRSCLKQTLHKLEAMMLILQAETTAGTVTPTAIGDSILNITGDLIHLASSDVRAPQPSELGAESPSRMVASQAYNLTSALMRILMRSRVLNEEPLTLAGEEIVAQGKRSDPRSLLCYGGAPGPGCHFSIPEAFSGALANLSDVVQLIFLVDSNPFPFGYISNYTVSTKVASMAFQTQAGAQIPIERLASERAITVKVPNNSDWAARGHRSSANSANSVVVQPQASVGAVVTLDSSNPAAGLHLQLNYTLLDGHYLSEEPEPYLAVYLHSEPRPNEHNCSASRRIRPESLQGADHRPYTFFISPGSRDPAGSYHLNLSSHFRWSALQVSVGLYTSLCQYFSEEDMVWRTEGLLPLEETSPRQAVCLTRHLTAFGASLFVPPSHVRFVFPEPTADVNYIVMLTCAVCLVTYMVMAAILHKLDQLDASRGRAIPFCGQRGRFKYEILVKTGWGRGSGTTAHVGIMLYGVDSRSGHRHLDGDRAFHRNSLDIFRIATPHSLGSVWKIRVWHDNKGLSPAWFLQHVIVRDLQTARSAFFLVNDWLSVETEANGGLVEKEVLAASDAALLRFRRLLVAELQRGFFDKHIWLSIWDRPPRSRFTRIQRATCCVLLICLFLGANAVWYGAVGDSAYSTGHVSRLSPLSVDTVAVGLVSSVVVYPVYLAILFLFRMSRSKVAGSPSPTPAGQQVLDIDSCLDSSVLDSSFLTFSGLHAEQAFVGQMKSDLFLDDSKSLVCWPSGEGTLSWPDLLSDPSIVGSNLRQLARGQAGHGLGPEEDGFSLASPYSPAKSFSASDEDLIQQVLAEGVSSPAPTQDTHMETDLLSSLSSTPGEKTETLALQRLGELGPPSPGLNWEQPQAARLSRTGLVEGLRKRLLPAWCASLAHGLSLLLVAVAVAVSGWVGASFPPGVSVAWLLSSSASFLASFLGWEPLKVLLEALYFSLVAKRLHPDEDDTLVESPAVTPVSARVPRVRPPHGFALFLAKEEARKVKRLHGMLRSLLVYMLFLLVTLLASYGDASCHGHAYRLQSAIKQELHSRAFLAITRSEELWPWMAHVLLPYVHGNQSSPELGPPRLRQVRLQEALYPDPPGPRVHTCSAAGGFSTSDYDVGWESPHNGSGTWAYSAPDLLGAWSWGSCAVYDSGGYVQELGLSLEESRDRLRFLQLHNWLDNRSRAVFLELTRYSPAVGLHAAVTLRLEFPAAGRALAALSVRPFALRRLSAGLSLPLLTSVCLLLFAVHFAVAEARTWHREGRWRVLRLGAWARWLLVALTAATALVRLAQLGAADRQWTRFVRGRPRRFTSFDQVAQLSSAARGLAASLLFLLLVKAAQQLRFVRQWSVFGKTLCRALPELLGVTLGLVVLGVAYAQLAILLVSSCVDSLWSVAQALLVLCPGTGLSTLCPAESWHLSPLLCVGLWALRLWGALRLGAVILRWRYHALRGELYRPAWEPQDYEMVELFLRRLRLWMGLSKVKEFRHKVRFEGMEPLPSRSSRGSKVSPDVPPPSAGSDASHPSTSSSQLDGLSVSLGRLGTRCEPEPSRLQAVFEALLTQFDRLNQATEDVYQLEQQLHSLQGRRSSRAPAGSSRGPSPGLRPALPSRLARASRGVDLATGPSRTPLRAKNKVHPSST

Effect of a mutation on the interaction, disrupting interaction:
V846A
I853A
I860A
L867A
